{
  "source": "paper PMC5749160",
  "about": "“Disruption of an RNA-binding hinge region abolishes LHP1-mediated epigenetic repression”",
  "conditions_in_all_cases": "protein: recombinant; tags: N-terminal GST (pGEX-4T-1); label: 5' Cy5; single-stranded",
  "key": {"GST-LHP1 KR33A": {"target": "T1, GST-LHP1 KR33A (Arabidopsis thaliana (Col-0 cDNA), UniProt Q946J8 1-445, R166A;K167A;R168A;K169A;R170A;K171A;K180A;K181A;K182A;R184A;K195A;R224A;K229A;R2 …)", "T1 sequence": "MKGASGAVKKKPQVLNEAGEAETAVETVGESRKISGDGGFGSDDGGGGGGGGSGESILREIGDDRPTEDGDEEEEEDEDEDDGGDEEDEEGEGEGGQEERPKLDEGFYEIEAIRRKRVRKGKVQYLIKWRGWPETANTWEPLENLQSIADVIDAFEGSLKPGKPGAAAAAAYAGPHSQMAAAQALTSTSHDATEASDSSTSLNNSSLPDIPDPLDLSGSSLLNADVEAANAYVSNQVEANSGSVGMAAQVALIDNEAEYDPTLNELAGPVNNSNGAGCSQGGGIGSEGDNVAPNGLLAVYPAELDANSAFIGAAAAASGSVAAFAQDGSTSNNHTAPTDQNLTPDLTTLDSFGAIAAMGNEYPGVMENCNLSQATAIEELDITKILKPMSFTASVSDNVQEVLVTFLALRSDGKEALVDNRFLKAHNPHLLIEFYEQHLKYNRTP", "assay": "EMSA; EMSA: 20 mM HEPES-KOH pH 7.5, 100 mM KCl, 0.05% NP-40, 10 nM Cy5 probe (1 uL of 100 nM + 9 uL protein), 30 min room temperature; 1.6% TBE-agarose gel"}, "GST-LHP1 KR23A": {"target": "T2, GST-LHP1 KR23A (Arabidopsis thaliana (Col-0 cDNA), UniProt Q946J8 1-445, R166A;K167A;R168A;K169A;R170A;K171A;K180A;K181A;K182A;R184A;K195A;R292A;K298A;K3 …)", "T2 sequence": "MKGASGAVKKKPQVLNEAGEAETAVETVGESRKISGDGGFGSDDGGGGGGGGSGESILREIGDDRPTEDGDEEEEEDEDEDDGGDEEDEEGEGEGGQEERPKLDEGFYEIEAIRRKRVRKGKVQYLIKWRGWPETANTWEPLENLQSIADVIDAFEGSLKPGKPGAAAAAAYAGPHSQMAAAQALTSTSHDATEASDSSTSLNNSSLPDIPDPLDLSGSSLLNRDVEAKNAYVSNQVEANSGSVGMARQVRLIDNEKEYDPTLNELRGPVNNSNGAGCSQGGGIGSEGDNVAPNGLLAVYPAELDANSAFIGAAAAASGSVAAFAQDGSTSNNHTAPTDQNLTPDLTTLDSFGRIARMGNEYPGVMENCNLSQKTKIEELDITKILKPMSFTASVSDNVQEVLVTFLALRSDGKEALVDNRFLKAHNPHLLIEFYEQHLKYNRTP", "assay": "EMSA; EMSA: 20 mM HEPES-KOH pH 7.5, 100 mM KCl, 0.05% NP-40, 10 nM Cy5 probe (1 uL of 100 nM + 9 uL protein), 30 min room temperature; 1.6% TBE-agarose gel"}, "GST-LHP1 W129C": {"target": "T3, GST-LHP1 W129C (Arabidopsis thaliana (Col-0 cDNA), UniProt Q946J8 1-445, W129C)", "T3 sequence": "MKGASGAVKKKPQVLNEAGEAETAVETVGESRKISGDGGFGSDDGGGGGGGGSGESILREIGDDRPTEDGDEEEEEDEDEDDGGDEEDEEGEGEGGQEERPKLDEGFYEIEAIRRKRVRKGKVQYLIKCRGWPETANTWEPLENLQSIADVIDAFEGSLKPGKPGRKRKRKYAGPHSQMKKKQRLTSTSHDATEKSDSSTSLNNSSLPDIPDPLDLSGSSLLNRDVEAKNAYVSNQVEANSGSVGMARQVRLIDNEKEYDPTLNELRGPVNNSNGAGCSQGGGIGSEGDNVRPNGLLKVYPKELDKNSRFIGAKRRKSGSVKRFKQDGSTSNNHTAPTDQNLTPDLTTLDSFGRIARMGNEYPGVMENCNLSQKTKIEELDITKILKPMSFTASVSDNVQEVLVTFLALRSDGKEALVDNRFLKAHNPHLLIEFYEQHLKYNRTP", "assay": "EMSA; wild-type RNA-binding activity retained; EMSA: 20 mM HEPES-KOH pH 7.5, 100 mM KCl, 0.05% NP-40, 10 nM Cy5 probe (1 uL of 100 nM + 9 uL protein), 30 min room temperature; 1.6% TBE-agarose gel"}},
  "data": [
    {"binder": "CUCCUCCGGCGAUAAGUACGCCUUUUCCUUACCUGGGUUU (ssRNA)", "note": "[FLC 40-nt ssRNA]", "values": [
      {"measurement": "binding result", "setting": "GST-LHP1 KR33A", "value": "no binding"},
      {"measurement": "binding result", "setting": "GST-LHP1 KR23A", "value": "no binding"},
      {"measurement": "binding result", "setting": "GST-LHP1 W129C", "value": "binds"}
    ]}
  ]
}
